Experimental data from article PMC4439256 (Experimental cell research, 2015).
Values belong to the binder of their own block, whether it stands above or below them.

Columns and labels:
human DNA helicase B [1] = target: T1, human DNA helicase B (human, UniProt Q8NG08 1-1087); test: co-IP
human DNA helicase B [2] = target: T1, human DNA helicase B; test: pull-down
[3] = target: HDHB N-terminus (aa 1-393) (human, UniProt Q8NG08 1-393); test: pull-down
[4] = target: HDHB helicase domain (aa 394-958) (human, UniProt Q8NG08 394-958); test: pull-down
HDHB helicase domain (aa 394-958), sequence (Q8NG08 394-958): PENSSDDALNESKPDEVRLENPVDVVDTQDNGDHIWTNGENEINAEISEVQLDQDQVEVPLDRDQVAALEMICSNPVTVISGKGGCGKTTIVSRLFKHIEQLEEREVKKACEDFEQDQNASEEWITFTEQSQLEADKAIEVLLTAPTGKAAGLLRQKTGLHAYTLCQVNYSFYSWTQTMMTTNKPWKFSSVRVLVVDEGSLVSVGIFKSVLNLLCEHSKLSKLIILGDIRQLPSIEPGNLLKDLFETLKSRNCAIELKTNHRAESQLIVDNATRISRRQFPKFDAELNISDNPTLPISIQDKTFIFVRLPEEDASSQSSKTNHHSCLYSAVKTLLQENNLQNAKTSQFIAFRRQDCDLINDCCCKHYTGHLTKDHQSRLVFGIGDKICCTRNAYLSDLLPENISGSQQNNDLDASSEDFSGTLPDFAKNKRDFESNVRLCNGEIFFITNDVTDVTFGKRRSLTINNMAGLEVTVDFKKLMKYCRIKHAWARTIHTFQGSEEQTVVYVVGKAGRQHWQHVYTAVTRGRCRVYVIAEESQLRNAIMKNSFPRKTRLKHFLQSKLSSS

T1 sequence (Q8NG08 whole entry): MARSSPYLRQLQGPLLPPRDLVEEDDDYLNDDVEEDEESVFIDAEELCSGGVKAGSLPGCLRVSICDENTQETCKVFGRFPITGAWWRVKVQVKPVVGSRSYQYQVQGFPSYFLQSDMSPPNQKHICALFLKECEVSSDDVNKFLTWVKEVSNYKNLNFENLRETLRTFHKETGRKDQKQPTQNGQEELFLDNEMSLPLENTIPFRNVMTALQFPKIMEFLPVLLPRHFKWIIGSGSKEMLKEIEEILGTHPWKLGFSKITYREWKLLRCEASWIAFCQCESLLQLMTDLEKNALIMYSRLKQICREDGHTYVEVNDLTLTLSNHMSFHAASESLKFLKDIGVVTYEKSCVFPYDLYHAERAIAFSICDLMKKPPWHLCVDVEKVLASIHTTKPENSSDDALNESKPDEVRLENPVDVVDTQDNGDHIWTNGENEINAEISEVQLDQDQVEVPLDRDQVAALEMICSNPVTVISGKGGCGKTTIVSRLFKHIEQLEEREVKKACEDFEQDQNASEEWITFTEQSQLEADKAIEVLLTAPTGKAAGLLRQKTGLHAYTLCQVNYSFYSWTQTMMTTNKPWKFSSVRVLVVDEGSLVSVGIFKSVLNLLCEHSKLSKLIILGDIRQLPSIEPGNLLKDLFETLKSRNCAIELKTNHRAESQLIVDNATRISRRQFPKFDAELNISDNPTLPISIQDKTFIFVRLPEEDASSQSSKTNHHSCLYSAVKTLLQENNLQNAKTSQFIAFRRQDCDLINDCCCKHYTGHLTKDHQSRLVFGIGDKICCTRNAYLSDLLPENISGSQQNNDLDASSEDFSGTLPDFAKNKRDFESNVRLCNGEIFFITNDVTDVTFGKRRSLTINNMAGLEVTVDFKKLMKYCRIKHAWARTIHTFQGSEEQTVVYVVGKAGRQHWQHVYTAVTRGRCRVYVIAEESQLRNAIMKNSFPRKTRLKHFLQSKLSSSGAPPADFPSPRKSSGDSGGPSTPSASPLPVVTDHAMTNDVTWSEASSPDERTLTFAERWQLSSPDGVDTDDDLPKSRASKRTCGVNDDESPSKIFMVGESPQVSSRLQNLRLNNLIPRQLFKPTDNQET
HDHB N-terminus (aa 1-393), sequence (Q8NG08 1-393): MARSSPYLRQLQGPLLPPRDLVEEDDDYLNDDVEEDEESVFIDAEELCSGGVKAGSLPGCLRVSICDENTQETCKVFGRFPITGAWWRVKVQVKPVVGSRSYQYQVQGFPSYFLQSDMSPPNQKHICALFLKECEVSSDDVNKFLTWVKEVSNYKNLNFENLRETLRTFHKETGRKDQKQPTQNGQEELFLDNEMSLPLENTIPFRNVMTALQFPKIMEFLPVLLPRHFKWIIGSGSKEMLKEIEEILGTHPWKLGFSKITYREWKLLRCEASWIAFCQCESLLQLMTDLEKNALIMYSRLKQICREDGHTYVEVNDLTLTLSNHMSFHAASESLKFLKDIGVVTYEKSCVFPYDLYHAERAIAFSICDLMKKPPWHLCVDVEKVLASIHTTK

binding result (human DNA helicase B [1]): binds
B1: His-Cdc45 (natural protein, human, UniProt O75419 1-566, looked up)
chain: MFVSDFRKEFYEVVQSQRVLLFVASDVDALCACKILQALFQCDHVQYTLVPVSGWQELETAFLEHKEQFHYFILINCGANVDLLDILQPDEDTIFFVCDTHRPVNVVNVYNDTQIKLLIKQDDDLEVPAYEDIFRDEEEDEEHSGNDSDGSEPSEKRTRLEEEIVEQTMRRRQRREWEARRRDILFDYEQYEYHGTSSAMVMFELAWMLSKDLNDMLWWAIVGLTDQWVQDKITQMKYVTDVGVLQRHVSRHNHRNEDEENTLSVDCTRISFEYDLRLVLYQHWSLHDSLCNTSYTAARFKLWSVHGQKRLQEFLADMGLPLKQVKQKFQAMDISLKENLREMIEESANKFGMKDMRVQTFSIHFGFKHKFLASDVVFATMSLMESPEKDGSGTDHFIQALDSLSRSNLDKLYHGLELAKKQLRATQQTIASCLCTNLVISQGPFLYCSLMEGTPDVMLFSRPASLSLLSKHLLKSFVCSTKNRRCKLLPLVMAAPLSMEHGTVTVVGIPPETDSSDRKNFFGRAFEKAAESTSSRMLHNHFDLSVIELKAEDRSKFLDALISLLS

binding result (human DNA helicase B [2]): binds
binding result [3]: binds
binding result [4]: binds
B2: GST-tagged Cdc45N (1-303) (domain or fragment, human, UniProt O75419 1-303, looked up)
chain: MFVSDFRKEFYEVVQSQRVLLFVASDVDALCACKILQALFQCDHVQYTLVPVSGWQELETAFLEHKEQFHYFILINCGANVDLLDILQPDEDTIFFVCDTHRPVNVVNVYNDTQIKLLIKQDDDLEVPAYEDIFRDEEEDEEHSGNDSDGSEPSEKRTRLEEEIVEQTMRRRQRREWEARRRDILFDYEQYEYHGTSSAMVMFELAWMLSKDLNDMLWWAIVGLTDQWVQDKITQMKYVTDVGVLQRHVSRHNHRNEDEENTLSVDCTRISFEYDLRLVLYQHWSLHDSLCNTSYTAARFKLW
